From patent US20120231011A1 (APEXIGEN, published 2012)

Experiments:
human VEGF [1] = molecular target: T1, human VEGF (human, UniProt P15692-4 27-191, limits assumed); assay: SPR, BIAcore-3000, human VEGF on CM5 chip; reference AVASTIN
T1 construct: The background describes VEGF as a homodimer

human VEGF [2] = molecular target: T1, human VEGF; assay: SPR, BIAcore-3000, human VEGF on CM5 chip, experiment 1
human VEGF [3] = molecular target: T1, human VEGF; assay: SPR, BIAcore-3000, human VEGF on CM5 chip
[4] = molecular target: T2, IgG Fc-hVEGF-A (Human VEGF 165) fusion protein (rabbit; human, UniProt P15692-4 27-191); assay: competitive ELISA: antibody premixed with IgG Fc-hVEGF, plate coated with IgG Fc-VEGFR2 (KDR)
T2 construct: Expressed in HEK 293-6E cells and purified on Protein A; not shown: rabbit IgG Fc

[5] = molecular target: T2, IgG Fc-hVEGF-A (Human VEGF 165) fusion …; assay: competitive ELISA: antibody mixed with IgG Fc-hVEGF, added to plate-bound IgG Fc-VEGFR2 (KDR); bound VEGF detected (OD405) [FIG. 1]
human VEGF [6] = molecular target: T1, human VEGF; assay: SPR, BIAcore-3000, human VEGF on CM5 chip, experiment 2
human VEGF [7] = molecular target: T1, human VEGF; assay: SPR, BIAcore-3000, human VEGF on CM5 chip, average of two experiments
[8] = molecular target: T2, IgG Fc-hVEGF-A (Human VEGF 165) fusion …; assay: direct binding ELISA on plate-bound IgG Fc-hVEGF, detection with donkey anti-human IgG-AP (OD405) [FIG. 4]

T1 sequence (P15692 other isoform, or with tags, fused parts or gaps limits assumed): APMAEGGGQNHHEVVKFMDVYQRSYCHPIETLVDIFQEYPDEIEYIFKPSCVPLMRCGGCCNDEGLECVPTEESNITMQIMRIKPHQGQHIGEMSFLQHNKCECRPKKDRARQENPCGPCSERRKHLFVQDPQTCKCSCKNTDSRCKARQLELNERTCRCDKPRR
T2 sequence (P15692 other isoform, or with tags, fused parts or gaps limits assumed): as above

B1: EPI0030 antibody (humanized rabbit anti-VEGF monoclonal antibody expressed by the HZD-V6 clone) (antibody, human IgG1, kappa, V domains shown)
VH: EVQLVESGGGLVKPGGSLRLSCAASGFSFSNNDVMCWVRQAPGKGLEWIGCIMTTDVVTEYANWAKSRFTVSRDSAKNSVYLQMNSLRAEDTAVYFCARDSVGSPLMSFDLWGPGTLVTVSS
VL: DIQMTQSPSSLSASVGDRVTINCQASQSIYNNNELSWYQQKPGKPPKLLIYRASTLASGVPSRFSGSGSGTDFTLTISSLQPEDVATYYCGGYKSYSNDGNGFGGGTKVEIKR
ratio of Kd to that of AVASTIN (human VEGF [1]): 0.01 fold (Kd of EPI0030 / Kd of AVASTIN)
Kd (human VEGF [2]): 0.331 nM
ratio of Kd to that of AVASTIN (human VEGF [3]): 0.01
IC50 [4]: 0.166 µg/mL
IC50 (read off the curve) [5]: ~0.9 µg/mL
Kd (human VEGF [6]): 0.638 nM
Kd (human VEGF [7]): 0.485 nM
EC50 (read off the curve) [8]: ~0.01 µg/mL

B2: recombinant humanized antibody expressed by the HZD-V1 clone (antibody, V domains shown)
VH: QQLVESGGGLVKPGGSLRLSCAASGFSFSNNDVMCWVRQAPGKGLEWIGCIMTTDVVTEYANWAKSRFTVSKDSAKNSVYLQMNSLRAEDTAVYFCARDSVGSPLMSFDLWGPGTLVTVSS
VL: ALQMTQSPSSLSASVGDRVTINCQASQSVYGNNELSWYQQKPGKPPKLLIYRASTLASGVPSRFSGSGSGTDFTLTISSLQPEDVATYYCGGYKSYSNDGNGFGGGTKVEIK
notes: The pairing of VH-HZD1 with VK-HZD1 for clone HZD-V1 is inferred from the names; Variable domains were cloned onto human CH and human CK
IC50 (read off the curve) [5]: ~0.9 µg/mL

B3: recombinant humanized antibody expressed by the HZD-V2 clone (antibody, V domains shown)
VH: QQLVESGGGLVKPGGSLRLSCAASGFSFSNNDVMCWVRQAPGKGLEWIGCIMTTDVVTEYANWAKSRFTVSRDSAKNSVYLQMNSLRAEDTAVYFCARDSVGSPLMSFDLWGPGTLVTVSS
VL: ALQMTQSPSSLSASVGDRVTINCQASQSIYNNNELSWYQQKPGKPPKLLIYRASTLASGVPSRFSGSGSGTDFTLTISSLQPEDVATYYCGGYKSYSNDGNGFGGGTKVEIK
notes: The pairing of VH-HZD2 with VK-HZD2 for clone HZD-V2 is inferred from the names; Variable domains were cloned onto human CH and human CK
IC50 (read off the curve) [5]: ~0.9 µg/mL

B4: recombinant humanized antibody expressed by the HZD-V5 clone (antibody, V domains shown)
VH: EVQLVESGGGLVKPGGSLRLSCAASGFSFSNNDVMCWVRQAPGKGLEWIGCIMTTDVVTEYANWAKSRFTVSKDSAKNSVYLQMNSLRAEDTAVYFCARDSVGSPLMSFDLWGPGTLVTVSS
VL: DIQMTQSPSSLSASVGDRVTINCQASQSVYGNNELSWYQQKPGKPPKLLIYRASTLASGVPSRFSGSGSGTDFTLTISSLQPEDVATYYCGGYKSYSNDGNGFGGGTKVEIK
notes: The pairing of VH-HZD5 with VK-HZD5 for clone HZD-V5 is inferred from the names; Variable domains were cloned onto human CH and human CK
IC50 (read off the curve) [5]: ~0.9 µg/mL
